From the supplement of paper PMC12636428

Test system: Saccharomyces cerevisiae
Assay: transcriptional activation domain activity (GFP:mCherry ratio, weighted mean of sorted bins, harmonized to initial dataset scale) (arbitrary fluorescence ratio units); higher = stronger transcriptional activation
Conditions: beta-estradiol 1 µM; induction time 4 h
Description: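 53-aa protein tiles (fungal proteins plus yeast TF control tiles) fused C-terminally to a DBD-estrogen-binding domain-mCherry synthetic TF, integrated in S. cerevisiae (URA3 locus) with a GFP reporter. Cells were induced with 1 uM beta-estradiol for 4 h at 30 C, FACS-sorted into 8 bins by GFP:mCherry ratio and barcodes sequenced. Activity is the read-weighted mean bin fluorescence (GFP:mCherry), averaged over barcodes (median 12); tiles under 50 reads were discarded. New active-learning values were harmonized by linear fit onto the scale of the initial (Hummel et al.) dataset. The assay saturates at low and high signal.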

Row | Sequence | transcriptional activation domain activity
1 | AAAAAAAAAAAAAAAAAAAAAAAAAAAQQRRRQQQQQRRGSSAAARRQQQQQR | 22600
2 | AAAAAAAAETAADEKPAEEAGEPPAAEPEAAEPAKEEAAPAEEAAAAEAVPAP | 54300
3 | AAAAAAAASNSYAIPENELLDEDTMNFISSLKNDLSNISNSLPFEYPHEIAEA | 123000
4 | AAAAAAAEGDGEGKGKEDGEDKEKEGGNGEAEAEAGAEGKKAAAGAAQKESSN | 35100
5 | AAAAALRTEETADSAGQLAEAGCRSVDTADTAEGCLEEMAVVVVAVASSVGAM | 55600
6 | AAAAAPATTTTESAPAPAAEAAKPAEEAKPAATEAAPAADATAAAPAPAPAAA | < 6570
7 | AAAAGVPIASDESETEVEEEGSSSADIGQAATTGRGRSPPKQQQQQQSVAAVS | 38500
8 | AAAAKPASGAKTGGKGKGAKSKKSKATVESEDEGEGADGAPAKKKTKKGKTSD | 44200
9 | AAAAREKAEAERKEKAEKEERERLEREKREVEAERKKVAAAAARAEKEKAKAA | 13400
10 | AAAASSTPCLRRRPAPAPATARSSAARPAGCSCGGRSRRCGGRRTPSPSRRGP | 20300
11 | AAAATGSKRKADDASDEEQEEGDKEGDNNKGEKQGGEPAGKKQKQTAGVKRVV | 27500
12 | AAADAEVDELEDGTADADGAKPKKRKRGGDADGKPKSARKDAPAAAKKKGGAA | 36500
13 | AAAGAADEAKTSSSPNGTKEAAVASSGGEKPAAAGVAGAPNSQSQTGAQPTKK | 28700
14 | AAAGAREVKHPAAKKQKKIEGGSETKDEEEKSSSKKRQKSESKSKSKSKSKSK | 28300
15 | AAAGNATAEAGAAEGKAKGKGKDAAAAEGAAAAGGAAAAEGKAKGKGKDAAAA | 46600
16 | AAAGRRGPGKRKGSRTSPGTAGGGGGRGGRGGGGRGGGARGGGAGGEAAGGAT | 29900
17 | AAAKAAPAIEEEPQEEQPEEPDKAAAPKKRGRKRKSSGVGAATAAAAAVPRGP | 9830
18 | AAAKAKDNIKEEDEADELAPVKKTAKKRGPKAQDVDGEGAPKKKPRGRPAKKA | 17000
19 | AAAKPVATKSSSKAKTPAAASISKSKAKPVAAAARGGGKKRKVASSPAPSVVA | 9030
20 | AAAPAAAANDGTTKKKGKGQKATRSPKGKGKSKKKGKGAAAAAAAPAAAKAVS | 14600
21 | AAAPAAANDGFHEVHHNRGGRGRGGHQGEGRGGYRGRGGPRGEFRGRGRGRGR | 42000
22 | AAAPAPEPAPKKGRPGRKPAAKSEPEAVEEKTEDAPKKRGRRSTLIPEPVEET | < 6570
23 | AAAPDVENEPAGRRKAAAAGVEQGGGHPHMLKGVCGNAGWGDAQAAAGKACKG | 26900
24 | AAAPRAKNAPRGKKQTAAKTAPEPEPEPEAEPAPAPKPRGRQKKTVKASAPEV | 20800
25 | AAARAPHVAPAPPDARPKSKKRKSSSPDDGRAPAKSRRLSPARAAPAKPKHRR | 12300
26 | AAASAPAPQNDGFSEVQHSRGGRGRGGHPSGERGGYRGRGRGGPRGDFGGRGR | 49600
27 | AAATAEGAASSRQPSERERKREREREEERERGKEREREKERKQAAEASTSANE | 58800

Row | Sequence | transcriptional activation domain activity
28 | AAATATGAAPPGAPGEGPPKVKRGRKPKPKNLPPSDPNASTTATPGTSAPGSQ | 32500
29 | AAATTADAKPASSAADKASSSVAAASAGQATASTDSGTAKAEKKKKGKAAAVA | 8920
30 | AAAVAAKKPEEKKEETPAEAATEAPKEEAKEEKKEEKAATKSRSQSRKRTSIF | < 6570
31 | AAAVAVAREHVQKEVVATVTVAKEHVQKEEVVAAVAVAREHAQKEVVATVAVA | 56000
32 | AAAVEKTEEEKPVAAAAAPAAEKEKAPAAKAKKATTTKKAAAPKKAAAPKAKK | 27700
33 | AADADEDDEDAPKKAPKKPAKRGRKKADDDDEEPEEEAQPAKKKAKGGRKAKK | 47700
34 | AADGSPAPRPNAICIHEVDQGIQWKHTNHRTGKAVVVRKRQLVLQQIITVANY | 44500
35 | AADQVQDTAGQAVNQVGDTAGKALGGLTGGGKKEQGGEEEGGGEQLRLRLELN | 35700
36 | AAEDGKKGDKAEVGKRGDKAEVKKVKKVDGEEAGGEKVVVEKKAGAEQKAVKA | 17500
37 | AAEDVEGEGEAKEKKSKKRRAEANGVGEGEEGERKKKKRKEKAVEQTEEEVKP | 34800
38 | AAEEAAVADGECPSKKKRQAELSKQISAKWKGLSPEDRRYWDTLAKEKKREHE | 19500
39 | AAEEAVKVAVVVEGAKKRRGRPRKDAVDEEGTVLGALADATNTQTATAAPVPM | 24300
40 | AAEEEDEEAKPLPAKKKRSSKKRKAEDAAEPEEKPAAKKKTAKVSGRGKKAAD | 16300
41 | AAEEEEAEAQAEKEEAEAEEAEAEEELEEAQAEEAEAEEAEAEEAEAVRGAMG | < 6570
42 | AAEEKEGYEDEAEEGEDEEEDEEDPEVRRKEELRARMAKMSAGMGGMGGMGMM | 10100
43 | AAEGGDSVAKSSPAKPKQSKQSKKRPRDEDGEGAGEAPASKKQPKAKAKAAKA | 26100
44 | AAEKPAEEQPAETLVVEAKEVEEPKAAAKKGKKKAAKKEAEKVVEEQAVETPA | 32500
45 | AAEPAPEPVVEKAPAPKKRAGRQPKAETVVEDAPAPKKRGRGARKSEPAAVAE | 21000
46 | AAERRQQGHRAKENEKRRQEEARRGRKERGAGGGKAKAGRKPAGQPRRRRSRE | 32900
47 | AAEVKQAKEETGEKAQKKEKKEKEKKAEAAEGGKKKEKAAGGGKPAAEEAAGE | 24500
48 | AAFFFALLWVVFRSSWPSPLFFFLFFFVGLVLLAFLAFGFPFARFLLPLGVFF | 26000
49 | AAFSGEGDPWPGVAREIDENGENVGLAASRPAPAFLRVLTAVRVRVRIAFAFV | 54500
50 | AAGAAAPAKAAPAGARKARKGAAAAAPAAAPAAGAAPAQGAAAKKGGRLGGAA | 30000
51 | AAGAAGAKASKAPKASKAAKAPKASGAAGAKKGGKKAGKGAASSGAAKAPAAT | 42400
52 | AAGASTTAQVSKKRQVLLRVNNRTYTRIDCIGRGGSGKVYRVSAESGKMLALK | 62100
53 | AAGETVHFSARAEVLTSKFGRTSKLSPRFIILTEKAVYILLAAARDGRVVVQL | 37700
54 | AAGGGGTGAGGAAGAARAAGHGAVGAAAGDGEQREGRAGRGRGHGRGVEGGRG | 59200

Row | Sequence | transcriptional activation domain activity
55 | AAGGSSSQAQITVNPGAKAEEEAEEDEGQLVQRMARRGIKSHVFVGSEIVQIP | 33900
56 | AAGKAGKGGKGAGKAGKGAGKGKGGKRGGKGGKGAKAAGKGAAKAASQAAAAS | 37100
57 | AAGPGNNDLDDTDTDNQQFFLSDMNLNGSSVFENVFDDDDDDDDVETHSIVHS | 28900
58 | AAINGSANGKRRRTKEDGGEKADGRAGPKSENVVLQKTIEHIHGLLQHKSVLL | 45900
59 | AAKALCKLQEAILKTYGMPGLLCMLRGISFHIYAVLTCTMLHLVAITCPDPDI | 32900
60 | AAKDRRHLRSRSQATYLILLGIMLWGLLRWRKTNVFKLWHLLVRQGACWILIV | 60400
61 | AAKGKAAAGGGTKKKGTAGAEAETPEMATPAPEGAPNAPAKKRAKKATAAAAA | 36400
62 | AAKMAREYKKGERQAGRMRTEKGERGEEDGREREGTRRRREKEKEKNKEKGPR | 46000
63 | AAKPAPKKAPGRPKKAAAEPEPASEPTESEEPKPKKAGGRPRKAAAPAAEPEA | 40700
64 | AAKPKDRIKYWNIVPGDRVRITGDKEGKLLEVAKINKLSNRVYLKGATTKAGS | 44400
65 | AAKRKTRADEHEEDEEEEHREATVVRRARGRPRKVEAPEPEAPVRATRGRATK | 17000
66 | AAKSKGRTSRASRTRGEKSDSKEEKKRTSSLKEKRSSSEEKKSRSSKSAGKEK | 38300
67 | AALALKFRYRIDGSTEDRWISVSRMLNKIAHWYLPQKYTFLHPSGIVSYAVIR | 66900
68 | AALFLSVQHKLFYLVMSLARFNLYFLSYSFLLLHAKRRWHWYAEIASIMLFWS | 50400
69 | AALLHLIILISFGNLLLVPKCCLLVHTLRFWCRVFFLNPSLVLSFALSTFIYS | 58900
70 | AAMLLQRVDPNILGNAANVDKTLIHSMAWCLAKIMLFFDPSYITGLLQAYFKL | 46300
71 | AANFHDTHGFGSMPQHLKKKPKAEGEGAGKAEEVKAEVSATAEAEESATAKAE | 34800
72 | AANKNAKRREARKKAAAAAGEGNEEDKGASAETKEDKSAEVKEKENVKPASEK | 29600
73 | AAPAAAAAQAAAPVSPAVKAETPVEAPKTIPAAAAPAPAPAKTEAAPAAEPVA | 27500
74 | AAPAAADPTPKKRGRPPRVSGAAEVAAAPEPAAEQPKKGRGRKAAEPAPEPVV | 23100
75 | AAPAAPADDGFQSVPGRNRGQREGGGNYRSRGGYRGEGRGRGGYRGEGRGRGR | 37000
76 | AAPAASKAAPAAASPEKKEKAKPGKKEREAAKAAAAAAPPKASASSSSAPEQA | 18300
77 | AAPAPAKRTAAAAGLEEAAASGELSKSQKKKLNKKLKGENGEAAAAPVAAAPS | 30900
78 | AAPKAKATTAKAKATTTKKATTAKASTTKKAAAAKPKANASKPRKAAAATAAA | 38600
79 | AAPSKPASPTKAAAPVSKPVTPAPQKAAPVQQQSKPATPAPQQKAATPAPKTA | 29500
